Test results from article PMC6212769, “CRISPR–Cas adaptation in Escherichia coli requires RecBCD helicase but not nuclease activity, is independent of homologous recombination, and is antagonized by 5′ ssDNA exonucleases”.

Experiments:
Cas1-Cas2 complex [1] = biological target: T1, Cas1-Cas2 complex (Escherichia coli, UniProt Q46896;P45956 1-305;1-94); experiment: EMSA; no Mg2+ added; EMSA: 20 nM DNA, 0-500 nM Cas1-Cas2, 20 mM Tris-HCl pH 8.0, BSA 100 (ug/ml), 7% glycerol, 37 C 30 min; 5% acrylamide TBE gel; conditions: protein: recombinant, tags: Cas1 N-terminal His6, Cas2 untagged, chain copies: 4;2, label: 5'-Cy5 on strand 1, 10 bp duplex
T1 sequence 1: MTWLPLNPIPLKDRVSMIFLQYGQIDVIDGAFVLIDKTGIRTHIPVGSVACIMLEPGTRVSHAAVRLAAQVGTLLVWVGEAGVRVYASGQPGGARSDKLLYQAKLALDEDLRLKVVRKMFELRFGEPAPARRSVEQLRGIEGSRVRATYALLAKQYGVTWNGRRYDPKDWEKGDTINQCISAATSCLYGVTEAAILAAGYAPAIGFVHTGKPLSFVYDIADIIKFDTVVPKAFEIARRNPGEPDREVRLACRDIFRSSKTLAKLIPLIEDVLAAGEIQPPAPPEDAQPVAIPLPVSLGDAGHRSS
T1 sequence 2: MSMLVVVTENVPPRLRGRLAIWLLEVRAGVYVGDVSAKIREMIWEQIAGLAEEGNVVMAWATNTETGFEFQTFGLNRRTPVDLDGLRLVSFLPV

Cas1-Cas2 complex [2] = biological target: T1, Cas1-Cas2 complex; experiment: EMSA; no Mg2+ added; complex formation improved over DNA-10; EMSA: 20 nM DNA, 0-500 nM Cas1-Cas2, 20 mM Tris-HCl pH 8.0, BSA 100 (ug/ml), 7% glycerol, 37 C 30 min; 5% acrylamide TBE gel; conditions: protein: recombinant; tags: Cas1 N-terminal His6; Cas2 untagged; chain copies: 4;2; label: 5'-Cy5 on strand 1; 14 bp duplex, 5' overhang 36 nt
Cas1-Cas2 complex [3] = biological target: T1, Cas1-Cas2 complex; experiment: EMSA; no Mg2+ added; up to 500 nM; EMSA: 20 nM DNA, 0-500 nM Cas1-Cas2, 20 mM Tris-HCl pH 8.0, BSA 100 (ug/ml), 7% glycerol, 37 C 30 min; 5% acrylamide TBE gel; conditions: protein: recombinant; tags: Cas1 N-terminal His6; Cas2 untagged; chain copies: 4;2; label: 5'-Cy5 on strand 1; blunt

B1: DNA-10 (mixed)
DNA 1: AATCAAAGTGGACCCAACTCGAAATCAACCGTAACAAGCAACAAGCAGGC
DNA 2: GCCTGCTTGT
Cas1-Cas2 complex [1]; 5' overhang 40 nt
  binding result: binds

B2: DNA-14 (mixed)
DNA 1: AATCAAAGTGGACCCAACTCGAAATCAACCGTAACAAGCAACAAGCAGGC
DNA 2: GCCTGCTTGTTGCT
Cas1-Cas2 complex [2]
  binding result: binds

B3: Duplex (dsDNA)
DNA 1: AATCAAAGTGGACCCAACTCGAAATCAACCGTAACAAGCAACAAGCAGGC
DNA 2: GCCTGCTTGTTGCTTGTTACGGTTGATTTCGAGTTGGGTCCACTTTGATT
Cas1-Cas2 complex [3]
  binding result: no binding

B4: DNA-3' (3' overhang) (mixed)
DNA 1: CGGACGAACAACGAACAATGCCAACTAAAGCTCAACCCAGGTGAAACTAA
DNA 2: TGTTCGTCCG
Cas1-Cas2 complex [1]; 3' overhang 40 nt
  binding result: binds
